# Measured values taken from the domain aggregation screens of Martell et al. (2025).
# Assay: soluble fraction after stress (log2 fold change); higher = more stays soluble; pooled small domains, quantitative proteomics
# Settings: stress: 50 degC
# Outline: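 The measure of aggregation propensity here is the base-two logarithm of the fold change in the soluble amount of each protein after stress. A higher value means more of that protein stays in solution. Stress was applied at 50°C to pooled libraries of small protein domains, read out by high-throughput quantitative proteomics.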
row,Sequence,soluble fraction (log2)
1,HMSADLVYLRKRLQDAIAQLPENMRTAYTLFQIANRSIREISELTGASESLVKVRIHRAKGKLQKQLEDLK,-1.33
2,HMSAEDYLERIHELIESKGTAHVADIAQSLGVGKPSVTSMVQKLADEGYLNYEKYRSLTLTDSGRSIA,0.105
3,HMSAEDYMEMIYRLSQENGFTRVNDLASALNVQPPSVTRMIQKLAELNLIKYEKYGVIMLQPYGIEVGRSL,-1.91
4,HMSAEGPALADWVVRDAHSIGAKITNSVAQLLIDRVGHNQQLLHNELQKLALVQTDISAELVKTMSHY,0.0302
5,HMSAETRSWTDAQGNQTQAVLRGFDGGDVLLQNAAGKTLRVPVKNLSEDDQRYVVLNISTLID,0.0786
6,HMSAITLDQARAIALDHAGISEGDATFVKEQTGTSSYEIEFYSGSNEYDYEIDKATGAILNVDR,0.0269
7,HMSALAEELIKKNQAMILTIKPRDTIWGIANRFQSPPSEKFINQIIELNQVDPYRLRIGQDLLIPLN,-0.584
8,HMSALTDQQQRVLELVASGLVYKEVAAALSISEPTVKYHMGNILTRLHVKNRAQAIAAARQQGLL,-1.21
9,HMSAMKYTSEVFQRLSRGQFISSNSIDAETRAIYSDIEENQQEYEDYFSKIDFLLSSGDGFYYFSRK,-2.4
10,HMSAMSPTEVGERLRLAREAVRMTQKQAADAISVARTTLVAIEQGQRRVRIDELQQLAKTYGVSVNAILR,-0.757
11,HMSAPAKKPKIKVDLSKVHAGTIVRHKGYGLGQVKGIDGAIIVVTFDGVDKKFQFPGGFENGFLFLTED,-0.0311
12,HMSAPLKELGNDPESGKPIVVKDGRFGAYVTDGETNATLRKTDAVESLTPERAAELLAEKRAKG,0.168
13,HMSAPTAFSERELELLAGMRRGASNKAMAEQLFISVNTVKYHRANLMRKLGARDRNEALEVAARLG,-0.0071
14,HMSAQDLIVKTDATQVEARVLEISPEQIRYKRFSNPDGPTYVLPVDAVDYIRYANGETDSFR,-0.0039
15,HMSASAIYVRPKDVKEPEEVADYLSGVLELDREKLYKKITDKSQWIALIERKVDNDIAFDIRNKKFKGIEI,-0.0243
16,HMSASIAEGTVIMLENTTNIRSGMSEDSSKVGTAYAGEKVTVVMSYAEGWTKVKWNGETGYIKTALLQL,-0.212
17,HMSASNSIDFANRMIYNKNQVAVFNFGKHMGRPVLEVLKSDPSYYDWMMKGDFPMDTKRKLTEIKLQGF,-0.755
18,HMSATPQRMTIIDALDSSGKNLSAYELLDLLNDKGQLFNISTIYRVLDFWIEMGIVHKINSSNTYL,0.125
19,HMSATQDAAIAVRIRDILSELDGYEDVTVTVTSGIVTMRGTTLDSEKIARLNDLTGRVEGVVAIENSVTET,-0.367
20,HMSAVIGTATVTTSSGSLNLRESASLYSRVIRTIPRGATVDVLSRDTSWSRVRYAGSEGYVLNQYLTFQT,-0.0809
21,HMSDAGMNQIGDMFRAPDLMAKLAMNPATREYVSQPDFLAMMEEVKRNPSALNNHLRDPRMMNVLSVAM,-0.115
22,HMSDAPLLSIRSLAVAFDGTRVVDGVSFDVARGEVVALVGESGSGKTVTGLSLLDLVPPPGRRVGGEV,0.0423
23,HMSDDAVVRMRVPEDALGLSLRETDFRQRFGVYVLAIETRDGKLLAPPDPQRPLGKDDVLVVIQKR,-0.138

row,Sequence,soluble fraction (log2)
1,HMSDDLLTGLDAYSRGDWTTATASFERVLTTADPNNRTEALYWLVMSETSAQNYQRALNYANTFL,-0.688
2,HMSDDSTIVELLASSLRRDIAFGTLLPDQKLKLNELRTRYGGSIHSMRETLRILSAEGLVEATAQRGFRVT,-0.0813
3,HMSDEIQLQFIQISIFKDHPWADMQIKDMNIIPDLLIVMILRDGERIIPNGNTRIMPGDMVIITAMSANT,-2.89
4,HMSDESALIAAIEKAIAAQPETAEKVRNGHLPAAGALIGSVMKETKGQADAARVRELLLGLLGQ,0.139
5,HMSDESRAEIVSSAKRLFQQYGYKKTTVSDIAKAMGKVKSAIYYYFPDKESLLRAVIDEEVG,-0.0483
6,HMSDFEASDPALLREGMRVQHLNFGKGTVITIEGAGANKKASVAFDGVGTKQLMLRFARLKIIYE,-0.146
7,HMSDFKDIILKLRNEQGFTQEKLADVLGTSKSTVGMWEMGVRFPSKELYEAIADYFNVDIDYLYGRTDIR,-0.966
8,HMSDGYETLVNMAKPFLNNSKQITENDITDAVNTVSVMLKKRYDMTDEDIRKAVSELLHFYA,-0.057
9,HMSDIDHIAGRRIRQARLNAGMTLETLASQAGISKALLSKIENSKVSSPLATFSKISKVLGVPLSDLLKE,-0.056
10,HMSDILALMPGTIKQILVAPGDSVKRGQTVIIMESMKMELTIAAHRDGVVKRIPVEQGGQVEKGMRLLELE,0.256
11,HMSDIPEGYMSRVQLGDEWGIHLATFDKAVIAVKEKLGTVVFIDKSNNTTAGYSPEQQTIIYDWLAEN,-1.82
12,HMSDKNVYGKYKNVFLSDEEFSELKQFYPNDWSDRIETLSEGIELKGYKYKNYLLAIKKWAEYEGQKAD,-0.0354
13,HMSDKPIFIDTAGIAALSAIGFSKYQATIIFNYIKKGGAIYTVKDLAKIYSIDQKTIDLTQSKIIFS,-0.0111
14,HMSDKPRYYINGNTLFISDKSVKKVLFSDLSGRSILHTTETAINIATFRGAHILTVIYTDGSTKSEVIF,-1.29
15,HMSDLLYAHPTEKGFQLVNVTQKVVMVILKTAAPNVYTVKGKNAIVFKEGNSWFYSENHNKKLLNIK,-1.13
16,HMSDLQTGDINQDGTVDEKDLSLLHSYNLELIKTISNAADLNEDGVINGLDEAYLKRLFLQNSDP,-0.0614
17,HMSDLTEVIVKFSGDIQPIRQDLDAQVEILLKGYAIITLSPNKIGRLYSYPQIESIEIPKNLYI,-1.26
18,HMSDPASLQRRLMSDPELTARILDSPFTRSLLDDPNLLRQMVNANPQLRRAMDANPQLRHAL,-0.21
19,HMSDPEAFIRQTVAAAEPEGIALSVLGKRVRGKFRTFKLRDLGYAQFRPYLGDLDGIKVEQRDGQSYARLD,-0.795
20,HMSDPSRKADFIAALSSLGGSAGNGKLREQLGWDEPTYDAVKQTLLDEGAITNGRGRGGSVALAG,≥ 0.62
21,HMSDPTDRLVLEAALKALGEEERQVVLLHAASGLKHREIARDLGLPLSTVLSRYSRALKKLQRYLTEEGVH,-0.77
22,HMSDPVDDLLLRISQQAGVARGQLVAELNMLVQDRFGGNLRHEAAAVLMAKRYGIEFRDLLPALREHLVKN,-0.00206
23,HMSDPVKQVAMRILDLREISDYTVDKMAEVLNVPVEEYRKYESGEVDMPISFLVKIGEVFHVDMTELLTG,-0.219

row,Sequence,soluble fraction (log2)
1,HMSDQTYVKDPETGEIFRVHKRVWETGEFWRDPVWGNILGGVERGSELERLLREEGWRPLQQSLEGFPEQ,-0.104
2,HMSDRESYGRYRNVSLTLSEYESLKNEYPLYADKYIERLSEYMETAGKHYNNHYATILSWLSKDIK,-0.487
3,HMSDSGLPLPRFVSLGDDRVNARAGPGFRFPINWVYLRKNFPVEVIDEFGHWRRIKDIDGIEGWIHLSML,-0.775
4,HMSDTSELESIIAQIIEDNPKSIEDIGAGNQKAYGFLTGQVMKATKGQANPQVANKIIRELVARKLE,0.575
5,HMSDTVDITKLGIAGKTKEAAEALLKENGFSVESKEENSDTIEKGKVISYSPTKPKNGDRITLIVSSGKK,0.0915
6,HMSEDTYNTLTKGTRVYNGVDYGAKYGYNPLYYFLNYNDLRIAYGADPAKLVEHYALFGIKENRVANRQIT,-0.098
7,HMSEEELETSGLVKRSAKGNLYDIFRHRVMVPIIDVRGAIIAFGGRVLDDSKPKYINSPETMVY,0.0208
8,HMSEEQLKAFLEKVQGDTSLQEKLKAAADANAVVEIAKEAGFSISADDLKNAQSELSEEELE,-0.0697
9,HMSEEVDVPDLVGMQLEEAEKSLEPLGLKLKIAKEIPNSEFEKGKIVDQKTKAGEKVKTGYTIEVTVSSG,-0.267
10,HMSEFAYPISLNGKTKFNLALSLALTKEEIEKEVLANADVQKFLNGQTPKKLIVVPGKIVNVV,-0.322
11,HMSEGEMSQWIIAQAKQQGGGFQPDAARLLGSYVGNNTLRARQEIDKLLTYVGPSRVVTPEDVVLLTA,-0.0143
12,HMSEHKFIVPEEFNLKRLDQTVAAQFEKISRTKISKIIKSSLLKVNDKVVTDQSIKIKQDDVITFTEIKDQ,0.0288
13,HMSEKRLHLVVDESDVNTRIDKYIADELDGYSRSFIQKLIKDNNVLVNGRAVKPNYNIGISDNIDIVLPKL,-0.00587
14,HMSELIDSLTEAVRSAPDAVPLRLHLAELLLADGQRDRAFAQLGQVLAKDPQNARALEMLGVGS,-0.0386
15,HMSELSEVIEKTFEELPEELKLIVKLREIDDLSYDEISNKIGIPIGTVRSRLHRAREILINIIKN,-1.55
16,HMSELSGSQLKAIREEKHIPLEQVASATRIRLSLLEALEMDEYAELGSRTQARGFLKLYADFLGVPFEA,0.0345
17,HMSEMDNMEWVREQYFQNMIYEIGEWVRDKKTGIVGEVVKRGTNYVTVVQEDFSLHKIWLEDLETTEK,-0.821
18,HMSEMLPFDEARRQFERDYLVQLLKLTSGNVSQAARLARRNRTDFYALLGRHQLEPASFKPE,-0.298
19,HMSEMVIPEDFLAALETNPQAKAFYATLNRQNQYAVYHRLQTAKRPETRAKRIADFVAQLAAGKRF,-0.355
20,HMSEPHPPFQVVAQFPYKSEYEDDLNFEKDQIITVTSIEDDEWYYGDFKNKGGELVEGIFPKSFVTVK,-0.403
21,HMSEPQYKVLFSNLDDRDGGAIVTALGAMNVPYKYNDTGTALLVPADRVYDARLQLASQGLPRG,0.18
22,HMSEPTVVAINETLTSERLDRYLTTQLPHISRGGIQRLLRKGNILVDGKPAKPTQHPVAGQTVEITWPIPK,-0.359
23,HMSEQMQVGELVFQLHRKAIKNLHINVLPPDGFVRVSAPQAMTETAIRTAVISRLPWIRRQQQAFAAQ,-2.12
